The data set deals with T1, COc1cc(CO)ccc1O.
T1 construct: SUMO tag cleaved for crystals; non-covalent FAD
In words: purified protein. It is filed as biochemical, Novosphingobium sp. Conditions: molecular oxygen as acceptor, 35 °C, 50 mM Tris-HCl pH 9.0, 300 mM NaCl.

By Km is commonly meant the substrate concentration at which the rate is half of its maximum. Broadly, the kcat is the number of substrate molecules converted per active site and unit of time at saturation. One may read the kcat/Km as the second-order rate constant that governs catalysis at low substrate concentration. With “nsVAO (vanillyl-alcohol oxidase from Novosphingobium sp.) (Novosphingobium sp.)”, the Km was determined as 207 ± 28 µM, the turnover number (kcat) worked out at 0.29 ± 0.01 s⁻¹ and the kcat/Km came to 1400 M⁻¹ s⁻¹.

As for “nsVAO (vanillyl-alcohol oxidase from Novosphingobium sp.) (Novosphingobium sp.; T181D)”, the Km amounted to 203 ± 22 µM, the kcat amounted to 0.28 ± 0.01 s⁻¹ and the kcat/Km was 1400 M⁻¹ s⁻¹.

Values taken from publication PMC7617285, “Dehydrogenase versus oxidase function: the interplay between substrate binding and flavin microenvironment” (ACS catalysis, 2025).
